Measurements reported in publication PMC3925748.

Target: FUS (full-length recombinant protein; tag not told for these experiments) (UniProt P35637)
Assay: cross-linking

stoichiometry N: < 5
Substance: FUS (full-length recombinant protein; tag not told for these experiments) (from UniProt P35637 1-526) (natural protein)
